{
  "source": "patent US20240032514A1",
  "about": "(RENGENE BIOTECHNOLOGY, published 2024)",
  "binders": {"B1": {"name": "G3-35 (VHH)", "VHH": "EVQLQQSGPELVKPGASVRMSCKASGYTFTDYNIHWVKQSHGESLEWIGFVNPDNGDTYYYKNFKGKATLTFNRSSSTAYMDLRSLTSEDSAVYYCARGTTVEKDYWGQGTTLTVSS"}, "B2": {"name": "G3-23 (VHH)", "VHH": "B1 VHH with L11V, V12L, A16T, H41R, N55T, T112I"}, "B3": {"name": "G3-71 (VHH)", "VHH": "B1 VHH with V51I, K65R, F72L, R74K, A92G, T112I"}, "B4": {"name": "D5S-12 heavy chain antibody (VHH)", "VHH": "EVKLLESGGGLVKPGGSLKLSCAASGFTFSDYGMSWIRQTPDKRLEWVATISSGNTYTYYSKSVKGRFTISRDNAKNTLYLQMSSLKSEDTAIYYCSRHTSDYYPLSQGTLVTVSA"}, "B5": {"name": "D4-12 heavy chain antibody variable region (VHH)", "VHH": "EVQLQQSGPELVKPGASVKISCKASGYMFSDYYMNWVKQSHGKSLEWIGNVDPNTDNTIYNQNFKDKATLTVDRSSRTAYMELHSLTSEDSAVYYCARSRFYDPWFAYWGQGTLVTVSA"}},
  "key": {"[1]": {"biological_target": "T1, human C-reactive protein (human, UniProt P02741 19-224)", "T1 construct": "also called CRP; antigen CRP", "T1 sequence (looked up)": "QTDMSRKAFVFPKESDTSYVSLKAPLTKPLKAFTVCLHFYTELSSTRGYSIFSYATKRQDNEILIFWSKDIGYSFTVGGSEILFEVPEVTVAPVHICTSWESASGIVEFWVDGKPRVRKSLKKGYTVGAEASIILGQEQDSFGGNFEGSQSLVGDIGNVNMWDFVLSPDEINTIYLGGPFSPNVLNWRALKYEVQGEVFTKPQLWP"}, "[2]": {"biological_target": "T2, BSA (UniProt P02769 25-607)", "T2 construct": "Control protein coated at 2 µg/mL; also called unrelated protein BSA", "T2 sequence (P02769 25-607 limits assumed)": "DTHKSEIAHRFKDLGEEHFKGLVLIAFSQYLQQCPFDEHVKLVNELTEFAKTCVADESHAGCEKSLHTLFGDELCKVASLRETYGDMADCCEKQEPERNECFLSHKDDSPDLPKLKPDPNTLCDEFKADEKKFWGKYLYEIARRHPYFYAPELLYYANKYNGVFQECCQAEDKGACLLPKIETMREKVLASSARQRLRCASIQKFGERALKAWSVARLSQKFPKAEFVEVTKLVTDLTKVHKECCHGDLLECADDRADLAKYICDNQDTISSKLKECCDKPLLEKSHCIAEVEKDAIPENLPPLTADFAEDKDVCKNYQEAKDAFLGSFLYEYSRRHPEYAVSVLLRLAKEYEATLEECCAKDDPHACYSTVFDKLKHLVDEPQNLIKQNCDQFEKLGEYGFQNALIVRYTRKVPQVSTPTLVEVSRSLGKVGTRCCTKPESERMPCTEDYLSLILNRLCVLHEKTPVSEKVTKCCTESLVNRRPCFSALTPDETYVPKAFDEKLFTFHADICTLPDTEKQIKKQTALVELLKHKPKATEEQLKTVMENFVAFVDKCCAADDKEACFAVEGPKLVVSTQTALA", "assay": "ELISA, protein coated at 2 µg/mL, antibody in gradient dilution"}, "[3]": {"biological_target": "T3, OVA (UniProt P01012 2-386)", "T3 construct": "Control protein coated at 2 µg/mL; also called unrelated protein OVA", "T3 sequence (looked up)": "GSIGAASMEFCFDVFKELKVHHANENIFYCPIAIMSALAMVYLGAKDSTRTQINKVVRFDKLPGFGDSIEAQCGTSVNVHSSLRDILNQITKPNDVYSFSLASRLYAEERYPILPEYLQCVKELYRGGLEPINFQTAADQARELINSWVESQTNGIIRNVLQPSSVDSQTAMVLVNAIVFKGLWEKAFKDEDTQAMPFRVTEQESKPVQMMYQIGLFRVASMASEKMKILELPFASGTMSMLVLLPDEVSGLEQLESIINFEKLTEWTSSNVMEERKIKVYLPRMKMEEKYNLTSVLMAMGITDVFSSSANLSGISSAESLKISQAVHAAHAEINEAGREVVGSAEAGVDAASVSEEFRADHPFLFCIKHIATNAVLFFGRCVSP", "assay": "ELISA, protein coated at 2 µg/mL, antibody in gradient dilution"}, "[4]": {"biological_target": "T1, human C-reactive protein", "assay": "BLI (FORTEBIO-OCTET), antibody at 10 µg/mL, CRP at 200-3.13 nM"}, "[5]": {"biological_target": "T1, human C-reactive protein", "assay": "ELISA, CRP coated at 2 µg/mL"}},
  "note": "Changes are numbered by the printed parent chain. Names may count otherwise. Read-outs that look alike come from different tables or passages of the source.",
  "data": [
    {"binder": "B1", "values": [
      {"measurement": "binding result", "setting": "[1]", "result": "binds"}
    ]},
    {"binder": "B2", "values": [
      {"measurement": "binding result", "setting": "[1]", "result": "binds"}
    ]},
    {"binder": "B3", "values": [
      {"measurement": "binding result", "setting": "[1]", "result": "binds"}
    ]},
    {"binder": "B4", "values": [
      {"measurement": "binding result", "setting": "[2]", "result": "no binding"},
      {"measurement": "binding result", "setting": "[3]", "result": "no binding"},
      {"measurement": "Kd", "setting": "[4]", "result": 987, "unit": "pM"},
      {"measurement": "koff", "setting": "[4]", "result": "8.44e-05", "unit": "s⁻¹"},
      {"measurement": "kon", "setting": "[4]", "result": 85500, "unit": "M⁻¹ s⁻¹"}
    ]},
    {"binder": "B5", "values": [
      {"measurement": "binding result", "setting": "[5]", "result": "binds"}
    ]}
  ]
}
